In patent US10221215 (NEW YORK UNIVERSITY, dated 2019):
Positions of bridges follow the written chain, without caps; N, C: chain ends. Non-standard residues stand in square brackets, D forms with d. No end group written: not given here. Aib = CC(C)(N)C(=O)O

Target: Ras (residues 1-166 of human Ha-Ras) (human, UniProt P01112 1-166)
Assay: cell-based or functional assay

| Binder | % Inhibition (Sos-mediated nucleotide exchange from Ras, mantGDP) [%] |
| --- | --- |
| FEGIYRLELLK [Peptide 8] | < 5 |
| FEAIYRLELLKAEEAN [Peptide 13] | 40 |
| FEGIYRTELLKAEEAN (staple (positions not given here); also: HBS: N-terminal main-chain i,i+4 H-bond replaced by C-C bond (ring-closing metathesis), residues 1-4) [HBS 6] | 40 |
| AEGIYRTDILRTEEGN [Peptide 3] | < 10 |
| FEGIYRTELLKAEEAN [Peptide 6] | 20 |
| FEGIYRLELLK[Aib]EE[Aib]N [Peptide 11] | 30 |
| FEGLLRLWLRKAEEAN [Peptide 12] | 50 |
| FEGIYRTDILR [Peptide 5] | < 10 |
| AEGIYRADILRTEEGN [Peptide 4] | < 10 |
| FEGIYRLELLKAEEAN [Peptide 7] | 37 |
| FEGIYRLELLKAEEAN (staple (positions not given here); also: HBS: N-terminal main-chain i,i+4 H-bond replaced by C-C bond (ring-closing metathesis), residues 1-4) [HBS 7] | 64 |
| FEGLLRLWLRKAEEAN (staple (positions not given here); also: HBS: N-terminal main-chain i,i+4 H-bond replaced by C-C bond (ring-closing metathesis), residues 1-4) [HBS 12] | 55 |
| FEGIYRTDILRTEEGN [Peptide 1] | 13 |
| FEAIYRLELLKAEEAN (staple (positions not given here); also: HBS: N-terminal main-chain i,i+4 H-bond replaced by C-C bond (ring-closing metathesis), residues 1-4) [HBS 13] | 50 |
| FEAIYRLEKLKAEEAN (staple (positions not given here); lactam 9-13; also: HBS: N-terminal main-chain i,i+4 H-bond replaced by C-C bond (ring-closing metathesis), residues 1-4) [HBS 15^] | < 10 |
| FEGLLRLWLRK[Aib]EE[Aib]N (staple (positions not given here); not fully specified (C-terminus, bridges); also: hydrogen bond surrogate: N-terminal main-chain i,i+4 H-bond replaced by C-C bond) [HBS 10] | 60 |
| FEGIYRLEKLKAEEANRR (staple (positions not given here); also: HBS: N-terminal main-chain i,i+4 H-bond replaced by C-C bond (ring-closing metathesis), residues 1-4) [HBS 16] | 56 |
| FEGLLRLWLRK[Aib]EE[Aib]N [Peptide 10] | 50 |
| FEAIYRLEKLKAEEAN [Peptide 15] | 50 |
| AEGIYRLELLKAEAAA (staple (positions not given here); also: HBS: N-terminal main-chain i,i+4 H-bond replaced by C-C bond (ring-closing metathesis), residues 1-4) [HBS 7^mut] | 15 |
| FEGIYRLELLK (staple (positions not given here); also: HBS: N-terminal main-chain i,i+4 H-bond replaced by C-C bond (ring-closing metathesis), residues 1-4) [HBS 8] | < 5 |
| FEGLLRLWLRK[Aib]EEAN (staple (positions not given here); not fully specified (C-terminus, bridges); also: hydrogen bond surrogate: N-terminal main-chain i,i+4 H-bond replaced by C-C bond) [HBS 9] | 35 |
| FEGIYRTDILRTEEGN (staple (positions not given here); also: HBS: N-terminal main-chain i,i+4 H-bond replaced by C-C bond (ring-closing metathesis), residues 1-4) [HBS 1] | 11 |
| FGEGIYRTDILRTEEGN [Peptide 2] | < 10 |
| FEGIYRLELLK[Aib]EE[Aib]N (staple (positions not given here); not fully specified (C-terminus, bridges); also: hydrogen bond surrogate: N-terminal main-chain i,i+4 H-bond replaced by C-C bond) [HBS 11] | 20 |
